In test [1] the target is T1, extracellular domain of human CD70 (SEQ ID NO: 89), hCD70-Fc-trimer, ACRO Biosystems (human, UniProt P32970 52-193, chemically biotinylated where the biotinylated form was used).
T1 construct: also called human CD70-Fc-trimer; Bio.CD70
T1 sequence: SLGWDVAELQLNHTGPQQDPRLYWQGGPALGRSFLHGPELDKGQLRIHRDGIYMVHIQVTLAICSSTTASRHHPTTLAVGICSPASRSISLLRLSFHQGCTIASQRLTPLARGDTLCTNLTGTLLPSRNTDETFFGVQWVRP
Briefly: crude extract HTRF, 2 nM biotinylated hCD70. An excerpt: Individual selected ankyrin repeat proteins specifically binding to hCD70 in solution were identified by a Homogeneous Time Resolved Fluorescence (HTRF) assay using crude extracts of ankyrin repeat protein-expressing Escherichia coli cells using standard protocols. Ankyrin repeat protein clones selected by ribosome display were cloned into derivatives of the pQE30 (Qiagen) expression vector (pMPDV25), transformed into E. coli XL1-Blue (Stratagene), plated on LB-agar (containing 1% glucose and 50 μg/ml ampicillin) and then incubated overnight at 37° C. Single colonies were picked into a 96 well plate (each clone in a single well) containing 160 μl growth medium (TB containing 1% glucose and 50 μg/ml ampicillin) and incubated overnight at 37° C., shaking at 800 rpm. […]
(§1) The extract of each lysed clone was applied as a 1:2000 dilution (final concentration) in PBSTB (PBS supplemented with 0.1% Tween 20® and 0.2% (w/v) BSA, pH 7.4) together with 2 nM (final concentration) biotinylated hCD70, 1:400 (final concentration) of anti-strep-Tb HTRF antibody-FRET donor conjugate (Cisbio) and 1:400 (final concentration) of anti-6His-D2 antibody FRET acceptor conjugate (Cisbio) to a well of 384 well plate and incubated for 60 minutes at RT. The HTRF was read-out on a Tecan M1000 using a 340 nm excitation wavelength and a 665±10 nm emission filter. […]
(In general: Time-resolved FRET reads energy transfer from a long-lived donor to a nearby acceptor.)

Test [2] concerns the target T2, biotinylated extracellular domains of human CD123 (uniprot ID 26951), Fc format (human, UniProt P26951 19-305, biotinylated).
T2 construct: extracellular domain
T2 sequence (looked up): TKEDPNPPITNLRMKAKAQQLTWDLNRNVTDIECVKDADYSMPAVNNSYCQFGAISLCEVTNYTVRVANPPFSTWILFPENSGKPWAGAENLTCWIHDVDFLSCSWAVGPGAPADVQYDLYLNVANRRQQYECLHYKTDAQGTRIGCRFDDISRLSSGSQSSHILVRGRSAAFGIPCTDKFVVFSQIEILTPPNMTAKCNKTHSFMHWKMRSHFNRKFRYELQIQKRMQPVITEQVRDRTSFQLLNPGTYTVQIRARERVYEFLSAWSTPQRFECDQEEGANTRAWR
As to the kind of experiment: crude extract HTRF, 6 nM biotinylated CD123. An excerpt:
(§2) Individual selected ankyrin repeat proteins specifically binding to hCD123 in solution were identified by a Homogeneous Time Resolved Fluorescence (HTRF) assay using crude extracts of ankyrin repeat protein-expressing Escherichia coli cells using standard protocols. Ankyrin repeat protein clones selected by ribosome display were cloned into derivatives of the pQE30 (Qiagen) expression vector (pMPDV045), which contains a C-terminal CD3 binding designed ankyrin repeat protein followed by a Flag tag, transformed into E. coli XL1-Blue (Stratagene), plated on LB-agar (containing 1% glucose and 50 μg/ml ampicillin) and then incubated overnight at 37° C. […]
The extract of each lysed clone was applied as a 1:500 dilution (final concentration) in PBSTB (PBS supplemented with 0.1% Tween 20® and 0.2% (w/v) BSA, pH 7.4) together with 6 nM (final concentration) biotinylated human or cyno CD123, 1:300 (final concentration) of anti-6His-D2 HTRF antibody-FRET acceptor conjugate (Cisbio) and 1:300 (final concentration) of anti-strep-Tb antibody FRET donor conjugate (Cisbio) to a well of 384 well plate and incubated for 120 minutes at RT. The HTRF was read-out on a Tecan M1000 using a 340 nm excitation wavelength and a 665±10 nm emission filter.

Test [3] deals with T3, biotinylated extracellular domain of human CD33 (SEQ ID NO: 87), Fc and Avi tagged (human, UniProt P20138 18-259, biotinylated with BirA-GST (Avi tag)).
T3 construct: also called hCD33; human target hCD33
As to the kind of experiment: crude extract HTRF, 6 nM biotinylated hCD33.
From the text: as §2, with “Similarly, individual” for “Individual”, “hCD33” for “hCD123”
as §1, with “a 1:1000” for “a 1:2000”, “with 6” for “with 2”, “biotinylated hCD33 (full-length or splice variant of ECD CD33),” for “biotinylated hCD70,”

T3 sequence (P20138 18-259 R69G): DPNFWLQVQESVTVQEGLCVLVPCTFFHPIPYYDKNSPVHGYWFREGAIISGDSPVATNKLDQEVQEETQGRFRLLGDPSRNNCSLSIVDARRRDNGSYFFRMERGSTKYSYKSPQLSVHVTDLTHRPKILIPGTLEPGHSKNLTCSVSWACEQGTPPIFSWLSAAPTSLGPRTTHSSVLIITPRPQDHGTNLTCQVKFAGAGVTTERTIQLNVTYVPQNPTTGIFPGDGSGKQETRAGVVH

B1: DARPin® protein #69 (designed binder)
chain: DLGYKLLQAAYDGQDDEVRILLAAGADVNAKDSRGQTPLHYAASIGHLEIVEVLLKAGADVNAKDDHGWTPLHLAAWSGHLEIVEVLLKAGADVNAQDQEGTTPADLAAVQSHEDIAEVLQKAA
notes: CD70-specific domain; screened as crude extract (vector pMPDV25)
Regarding B1, the binding result in test [1] is “binds”.

B2: DARPin® protein #64 (designed binder)
chain: DLGWKLLDAAEIGQDDEVRILLAAGADVNAKDKQGITPLHIAAAHGHLEIVEVLLKAGADVNAKDEIGRTPLHLAAFKGHLEIVEVLLKAGADVNAQDIIGETPADLAAVRGHEDIAEVLQKAA
notes: CD123-specific domain; screened as crude extract
For B2, the binding result in test [2] was “binds”.

B3: DARPin® protein #63 (designed binder)
chain: DLGKKLLQAARAGQLDEVRELLKAGADVNAKDQYGRTPLHLAAIKGHLEIVEVLLKAGADVNAKDSLGYTPLHLAAVEGPLEIVEVLLKAGADVNAKDAYGQTPLHIAAAWGHLEIVEVLLKAVADVNAQDKSGKTPADLAARAGHQDIAEVLQKAA
notes: as for B2
With B3, the binding result in test [2] is “binds”.

B4: DARPin® protein #38 (designed binder)
chain: DLGVKLLRAAFHGQDDEVRILLAAGADVNAKDTDGETPLHYAAQFGHLEIVEVLLKAGADVNAKDAYGATPLHWAAWHGHLEIVEVLLKAGADVNAQDVSGATPADLAAKVGHEDIAEVLQKAA
notes: CD33-specific domain
Turning to B4, the binding result in test [3] was “binds”.

B5: DARPin® protein #68 (designed binder)
chain: DLGKKLLQAARAGQLDEVRELLKAGADVNAKDQAGLTPLHIAAATGHLEIVEVLLKAGADVNAKDFSGLTPLHLAAFEGHLEIVEVLLKAGADVNAKDQHGQTPLHLAAWTGHLEIVEVLLKAGADVNAQDKSGKTPADLAARAGHQDIAEVLQKAA
notes: as for B1
Regarding B5, in test [1], the binding result was “binds”.

B6: DARPin® protein #37 (designed binder)
chain: DLGWKLLLAASRGQDDEVRILLAAGADVNAKDIDEGYTPLHIAAYYGHLEIVEVLLKAGADVNAKDRYGKTPLHLAAISGHEDIAEVLLKAGADVNAQDDKGDTPADLAADYGHEDIAEVLQKAA
notes: CD33-specific domain
As to B6, the binding result in test [3] is “binds”.

(Values after patent US20240254229A1 (Molecular Partners, published 2024).)
